From patent US20130184211A1 (NEW YORK UNIVERSITY, published 2013)

Target: FGFR-Klotho complex of opossum kidney OKP cells (opossum)
Test: cell-based or functional assay

B1: N-terminally hexahistidine-tagged 72-amino acid C-terminal tail of human FGF23 (S180 to I251), FGF23^180-251 (peptide)
peptide: SAEDDSERDPLNVLKPRARMTPAPASCSQELPSAEDNSPMASDPLGVVRGGRVNTHAGGTGPEGCRPFAKFI
notes: Expressed in E. coli; also called FGF23 C-terminal tail peptide; C-terminal tail of FGF23; not shown: N-terminal hexahistidine tag (six His)
antagonism of the inhibition of sodium-coupled phosphate uptake by FGF23^28-251 in OKP cells, IC50: ~21 nM
